Positions count from the first letter of the chain named.
Tests used:
[1] = target: T1, GST-tagged mouse ZO-1(PDZ1) (residues 18–110) (mouse, UniProt P39447 18-110); assay: SPR; BIACORE-3000; Trx-CLD3 peptide immobilized on a CM5 chip, PDZ domain as analyte (0 to 100 ug/mL), 20 uL/min; 10 mM HEPES pH 7.4, 150 mM NaCl, 3 mM EDTA, 0.005% Surfactant P20; KD by 'Affinity from steady-state'; no phytic acid; details: both partners purified
T1 construct: zonula occludens 1 (ZO-1), mouse, first PDZ domain, residues 18-110; The methods say that the GST fusion proteins were used for the SPR analysis; also called first PDZ domain of zonula occludens 1; wild-type; source: E. coli BL21 (DE3), purified (glutathione-Sepharose FF), dialyzed
T1 sequence (looked up): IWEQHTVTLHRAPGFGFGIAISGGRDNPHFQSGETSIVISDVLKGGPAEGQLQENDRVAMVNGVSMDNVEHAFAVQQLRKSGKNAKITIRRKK

[2] = target: T2, mouse ZO-1(PDZ1) Arg28 Ala-substituted mutant (mouse, UniProt P39447 18-110, Arg28 Ala-substituted); assay: as above; details: both partners purified
T2 construct: zonula occludens 1 (ZO-1), mouse, first PDZ domain, residues 18-110, with Arg28 changed to Ala; Made by mutagenesis of the whole expression plasmid of ZO-1(PDZ1); no cleavage of GST is described for the mutants; also called Arg28 mutation; source: purified with glutathione-Sepharose, dialyzed
T2 sequence (looked up): T1 sequence (looked up) with R11A

- Kd [1]: 170 nM
- binding result [2]: binds
B1: His6-tagged thioredoxin (Trx) fusion protein of mouse CLD-3 C-terminus (Trx-CLD3, residues 210–219) (domain or fragment, UniProt Q9Z0G9 210-219, looked up)
chain: GTAYDRKDYV
notes: claudin-3 (CLD-3), mouse, C-terminus, residues 210-219; also called Trx-CLD3 peptide; CLD-3 peptide; source: E. coli BL21 (DE3), purified (Ni2+-chelating-Sepharose), dialyzed
